{"source": "paper PMC5884710", "about": "“Cork-in-Bottle Occlusion of Fluoride Ion Channels by Crystallization Chaperones” (Structure(London, England:1993), 2018)", "proteins": {"B1": {"name": "Fluoride channel from B. pertussis (Fluc homolog Bpe) (natural protein)", "chain": "MLTYAPLNFIAIGIGATLGAWLRWVLGLRLNGAGWPWGTLTANLVGGYLIGVMVALIASHPEWPAWIRLAAVTGFLGGLTTFSTFSAETVDMLERGVYATAAAYAGASLAGSLAMTGLGLATVRLLLR", "notes": "Fluc family fluoride ion channel homolog Bpe from B. pertussis; homodimer of two antiparallel subunits (subunits A and B in PDB 6BQO); pET21c with Bpe gene, C-terminal hexahistidine tag; Construct as in Stockbridge et al., 2013; also called Fluc channel; Fluc homologue \"Bpe\"; source: E. coli, purified (as described in Stockbridge et al., 2013); reconstituted into liposomes for …"}}, "molecular_target": "the molecule itself", "test": "crystal structure; in meso crystals of the Bpe-S8 complex; 26% PEG 550MME, 0.1 M sodium citrate, pH 5.0; 2.8 A", "data": [{"protein": "B1", "values": [{"measurement": "stoichiometry N", "result": 2}]}]}
